From patent publication US9289478B2, “Formulations of tumour-associated peptides binding to human leukocyte antigen (HLA) class I or class II molecules for vaccine” (IMMATICS BIOTECHNOLOGIES GMBH, priority 2008, dated 2016)

Test: HPLC-assay for in-use stability after reconstitution with 4.2% sodium hydrogen carbonate solution (Example 2, peptides SEQ ID NO 1-10)
Assay type: physicochemical
Procedure: Resolubilization procedure: For clinical trials the above described formulation is dissolved in 700 μl sodium hydrogen carbonate (4.2%). Remove plastic cap from one vial. Unpack and remove sodium hydrogen carbonate (4.2%) from the refrigerator at least 30 min before resolubilization to bring them up to room temperature before injection. Prepare syringe and needle for reconstitution. Use aseptic technique to take 700 μL of diluent for reconstitution of the lyophilisate. To dissolve the lyophilisate, the vial and the diluent shall be shaken vigorously for 1 minute, check whether solution is clear, otherwise continue shaking for another minute until the solution is clear. 10 to 30 minutes after GM-CSF injection, use a new syringe to administer 500 μL reconstituted formulation i.d. at the same site. Administration has to occur within 1 h after reconstitution. Dissolved lyophilisate may be stored aseptically at room temperature for up to 1 hour following reconstitution.
However, a decrease of two specific peptides, i.e. IMA-CCN-001 and IMA-RGS-001 took place (see Table 6). As these peptides contain a cysteine residue, time-depending dimerization takes place.
Identity, purity and peptide content are determined by analytical RP-HPLC chromatography. Detection wavelength was 220 nm.

[1] = +mannitol/lutrol, 1 h after reconstitution
[2] = +mannitol/lutrol, 2 h after reconstitution
[3] = +mannitol/lutrol, 3 h after reconstitution
[4] = +mannitol/lutrol, 4 h after reconstitution
[5] = +mannitol/lutrol, 5 h after reconstitution
[6] = +mannitol/lutrol, 6 h after reconstitution
[7] = +mannitol/lutrol, Initial (starting value set to 100%)
[8] = no excipients, 1 h after reconstitution
[9] = no excipients, 2 h after reconstitution
[10] = no excipients, 3 h after reconstitution
[11] = no excipients, Initial (starting value set to 100%)

Sequence | in-use stability, peptide by HPLC-assay [1] | in-use stability, peptide by HPLC-assay [2] | in-use stability, peptide by HPLC-assay [3] | in-use stability, peptide by HPLC-assay [4] | in-use stability, peptide by HPLC-assay [5] | in-use stability, peptide by HPLC-assay [6] | in-use stability, peptide by HPLC-assay [7] | stability after reconstitution (in words) (Example 2 formulation, 4.2% sodium hydrogen carbonate) | in-use stability, peptide by HPLC-assay [8] | in-use stability, peptide by HPLC-assay [9] | in-use stability, peptide by HPLC-assay [10] | in-use stability, peptide by HPLC-assay [11]
LLGATCMFV (listed as Homo sapiens) [CCN-001, Cyclin D1 tumour-associated peptide] | 95.6% | 92.2% | 91.3% | 89.2% | 86.1% | 85.9% | 100.0% | decrease | 82.8% | 72.1% | 63.3% | 100.0%
SQDDIKGIQKLYGKRS (listed as Homo sapiens) [MMP-001, Matrix metalloproteinase 7 tumour-associated peptide] | 99.5% | 99.3% | 100.2% | 100.4% | 98.9% | 100.9% | 100.0% | – | 98.6% | 97.1% | 95.7% | 100.0%
SVFAGVVGV (listed as Homo sapiens) [GUC-001, GUCY1A3 tumour-associated peptide] | 99.7% | 99.5% | 100.6% | 100.8% | 99.7% | 101.6% | 100.0% | – | 100.0% | 100.0% | 98.6% | 100.0%
VMAGDIYSV (listed as Homo sapiens) [ADF-002, Adipophilin tumour-associated peptide] | 99.9% | 100.0% | 101.1% | 101.2% | 99.9% | 101.9% | 100.0% | – | 100.9% | 100.0% | 97.2% | 100.0%
YVDPVITSI (listed as Homo sapiens) [MET-001, c-met proto-oncogene tumour-associated peptide] | 99.8% | 99.8% | 101.0% | 101.1% | 99.8% | 101.7% | 100.0% | – | 100.0% | 99.2% | 96.7% | 100.0%
